This assay deals with TssM-ekto (periplasmic domain of TssM, 386-1129), after TEV cleavage (enteroaggregative Escherichia coli strain 17-2). As to the kind of experiment: SEC-MALS; MALS/QELS/UV/RI of the TssM-ekto/TssJ complex; 10 mM HEPES pH 7.5, 150 mM NaCl. Background: Size exclusion chromatography separates by hydrodynamic size, large species first.

The source of these data is PMC3213119.

A word on the stoichiometry N: it is the number of molecules, sites or subunits per partner or assembly. “TssJ (enteroaggregative E. coli Sci1 T6SS), residues 2-155 of the processed lipoprotein, fusion and tag cleaved (domain or fragment)” gave a stoichiometry N of 1.
